Reference: the supplement of paper PMC9876800

Tested on: peptide library, one residue held at a place counted from the S/T acceptor
Experiment: relative phosphorylation of the sub-library (ratio to the mean residue at this position); higher = residue favoured
Summary of the method: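 Human or orthologue kinase constructs, purified and recombinant, were incubated under kinase-specific conditions in 384-well plates with biotinylated degenerate peptide sub-libraries. Each sub-library fixed one residue at one position around a central Ser/Thr. Incubations lasted 90 min with peptides at 50 μM and 50 μM ATP spiked with γ-32P-ATP, after which spots on streptavidin membranes were phosphorimaged and quantified by densitometry. Relative sub-library phosphorylation is a ratio to the mean residue at that position.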

STK33, construct: Full length, human, sequence (Q9BYT3 whole entry, looked up): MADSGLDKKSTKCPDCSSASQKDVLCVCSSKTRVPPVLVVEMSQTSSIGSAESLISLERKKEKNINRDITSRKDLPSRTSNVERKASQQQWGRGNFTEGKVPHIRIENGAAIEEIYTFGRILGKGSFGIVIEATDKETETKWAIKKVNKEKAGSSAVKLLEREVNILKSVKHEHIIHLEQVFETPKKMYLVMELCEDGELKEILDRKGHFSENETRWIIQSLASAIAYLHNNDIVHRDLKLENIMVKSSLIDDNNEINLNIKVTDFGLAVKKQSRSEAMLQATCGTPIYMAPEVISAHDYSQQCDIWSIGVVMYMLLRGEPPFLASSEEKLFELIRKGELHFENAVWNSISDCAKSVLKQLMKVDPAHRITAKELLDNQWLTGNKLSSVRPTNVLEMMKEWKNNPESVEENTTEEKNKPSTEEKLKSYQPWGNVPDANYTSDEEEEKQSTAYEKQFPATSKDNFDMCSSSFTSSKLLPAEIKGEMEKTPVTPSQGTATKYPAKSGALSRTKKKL
PRKCZ, construct: Full length, human, sequence (Q05513 whole entry, looked up): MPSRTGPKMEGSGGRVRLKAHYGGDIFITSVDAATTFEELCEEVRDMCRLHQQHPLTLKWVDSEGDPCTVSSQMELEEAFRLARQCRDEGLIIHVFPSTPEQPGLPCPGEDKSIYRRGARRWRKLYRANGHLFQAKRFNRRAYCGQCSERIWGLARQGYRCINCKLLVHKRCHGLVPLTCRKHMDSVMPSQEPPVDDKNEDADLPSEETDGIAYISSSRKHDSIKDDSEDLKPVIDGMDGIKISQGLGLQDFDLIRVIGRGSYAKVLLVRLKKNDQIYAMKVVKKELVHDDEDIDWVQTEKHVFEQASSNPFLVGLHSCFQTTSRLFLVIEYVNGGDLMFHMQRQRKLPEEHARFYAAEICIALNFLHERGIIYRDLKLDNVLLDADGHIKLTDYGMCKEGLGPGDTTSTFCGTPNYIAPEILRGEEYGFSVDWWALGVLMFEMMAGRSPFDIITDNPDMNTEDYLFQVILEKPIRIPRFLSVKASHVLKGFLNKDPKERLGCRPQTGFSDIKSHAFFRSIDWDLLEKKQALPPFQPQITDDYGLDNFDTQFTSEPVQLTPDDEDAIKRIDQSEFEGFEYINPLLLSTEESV

STK33, construct: Full length, human (from UniProt Q9BYT3)
relative phosphorylation
Details	at +1	at +2	at +3	at +4	at -1	at -2	at -3	at -4	at -5
A fixed	0.409	0.63	0.576	0.702	0.899	0.84	0.905	1.03	1.17
D fixed	0.151	0.26	0.433	0.754	0.393	0.433	0.344	0.723	0.731
E fixed	0.158	0.243	0.451	0.951	0.572	0.411	0.355	0.681	0.709
F fixed	1.25	1.85	1.22	0.842	0.653	1.95	1.53	0.855	0.849
G fixed	0.327	0.41	0.743	1.03	0.676	0.987	1.08	1.23	1.43
H fixed	0.745	1.82	1.31	1.12	0.933	1.39	1.07	1.19	1.25
I fixed	1.33	0.956	0.804	0.992	0.574	0.549	0.683	0.661	0.6
K fixed	2.18	0.815	2.01	1.41	2.59	0.826	0.921	1.39	1.72
L fixed	0.893	0.654	0.657	0.801	0.812	0.865	1.62	0.77	0.603
M fixed	1.36	0.871	0.756	0.914	1.14	0.99	1.42	0.836	0.653
N fixed	0.578	0.59	0.655	0.917	0.978	1.32	0.724	1.02	1.11
P fixed	0.217	0.394	0.564	1.38	0.306	0.43	0.915	0.924	1.12
Q fixed	1.23	0.53	0.661	0.994	1.33	0.786	0.836	0.823	0.856
R fixed	3.13	1.16	2.98	1.28	2.9	1.34	1.66	1.42	1.5
V fixed	1.29	0.796	0.721	0.835	0.747	0.568	0.555	0.585	0.613
W fixed	0.768	1.8	1.23	1.21	0.557	1.73	1.23	1.98	1.22
Y fixed	0.988	3.23	1.24	0.882	0.943	1.59	1.16	0.886	0.869
pThr fixed	0.683	0.937	1.23	1.3	0.439	0.702	1.14	1.05	1.24
pTyr fixed	0.677	11.7	1.91	1.8	0.918	0.887	1.02	0.779	1.13

PRKCZ, construct: Full length, human (from UniProt Q05513)
relative phosphorylation
Details	at +1	at +2	at +3	at +4	at -1	at -2	at -3	at -4	at -5
A fixed	0.673	0.759	0.778	1	1.16	0.809	0.78	1.13	1.32
D fixed	0.193	0.206	0.324	0.596	0.387	0.399	0.425	0.666	0.79
E fixed	0.293	0.203	0.319	0.563	0.375	0.355	0.437	0.661	0.732
F fixed	1.37	0.662	0.927	0.827	0.468	1	0.842	0.827	1.23
G fixed	1.1	0.52	1.07	1.07	1.21	1.45	1.28	1.57	1.52
H fixed	0.752	1.35	1.33	1.35	1.06	1.07	1.08	1.03	1.08
I fixed	0.868	0.646	0.646	0.608	0.259	0.288	0.378	0.468	0.533
K fixed	2.46	2.13	2.15	2.05	3.12	1.18	1.91	1.29	1.15
L fixed	0.768	0.577	0.834	0.64	0.457	0.47	0.535	0.59	0.803
M fixed	1.42	0.912	0.759	0.706	0.755	0.731	0.659	0.783	0.694
N fixed	0.832	0.908	0.975	1.08	1.26	1.19	1.11	1.4	1.25
P fixed	0.344	0.512	0.706	1.17	0.986	1.16	1.1	1.45	1.12
Q fixed	1.23	0.916	0.978	1.14	1.19	0.983	1.08	1.04	0.788
R fixed	2.39	4.07	2.08	1.34	2.43	2.99	3.2	1.45	1.31
V fixed	0.844	0.682	0.671	0.703	0.406	0.342	0.415	0.483	0.607
W fixed	0.61	0.803	1.28	1.13	0.579	0.973	0.909	1.33	1.23
Y fixed	0.841	1.14	1.17	1.01	0.89	1.61	0.855	0.824	0.837
pThr fixed	0.461	0.391	0.519	0.651	0.314	0.632	0.696	0.847	0.985
pTyr fixed	0.363	0.396	0.623	0.538	0.451	0.621	0.831	0.761	0.857
